{"source": "paper PMC2266796", "experiment_in_all_cases": "SEC-MALS; 100 ug purified Strep-tagged PfPdx1 on Superdex 200 10/30 with static light scattering (miniDAWN Tristar); 100 mM Tris-HCl pH 8.0, 150 mM NaCl, no amino acid added", "key": {"[1]": {"target": "PfPdx1 D26A (P. falciparum) (UniProt C6KT50)"}, "[2]": {"target": "PfPdx1 ERR (E136A/R139A/R140A) triple mutant (P. falciparum) (UniProt C6KT50)"}, "[3]": {"target": "PfPdx1 K83A (P. falciparum) (UniProt C6KT50)"}}, "data": [{"substance": "PfPdx1 D26A (from UniProt C6KT50 1-301) (enzyme)", "values": [{"measurement": "stoichiometry N", "setting": "[1]", "value": 12}]}, {"substance": "PfPdx1 ERR (E136A/R139A/R140A) triple mutant (from UniProt C6KT50 1-301) (enzyme)", "values": [{"measurement": "stoichiometry N", "setting": "[2]", "value": 12}]}, {"substance": "PfPdx1 K83A (from UniProt C6KT50 1-301) (enzyme)", "values": [{"measurement": "stoichiometry N", "setting": "[3]", "value": 12}]}]}
